One may read the Kd as the constant that tells how readily two partners part at equilibrium. As a reminder, the IC50 is the concentration at which inhibition is half-maximal. Low values mean greater potency, high ones weaker potency.

One assay deals with HLA-A*30:01. The assay can be described thus: IEDB peptide-MHC binding, purified MHC/competitive/radioactivity; filed as Kd, often an IC50 or EC50 that approximates it; ≥ and ≤ were set here for values at or beyond the usual limits of such assays. The following applies: source organism: Vaccinia virus WR.
For a further assay, the target named is HLA-B*15:03. Described as above.
The target of assay [1] is HLA-B*15:01. The description is as above. The following applies: source organism: Vaccinia virus WR.
The target in another assay is HLA-B*08:01. The description is as above. The following applies: source organism: Vaccinia virus WR.
Another assay addresses HLA-A*32:01. The description is as above. The following applies: source organism: Vaccinia virus WR.
Another assay concerns the target HLA-B*57:01. Nature of the assay: IEDB peptide-MHC binding, purified MHC/competitive/fluorescence; filed as Kd, often an IC50 or EC50 that approximates it; ≥ and ≤ were set here for values at or beyond the usual limits of such assays. The following applies: source organism: Zaire ebolavirus.
The next assay concerns the target HLA-B*39:01. The assay is described as above. The following applies: source organism: Zaire ebolavirus.
The target of another assay is HLA-B*51:01. The description is as above. The following applies: source organism: Zaire ebolavirus.
Assay [2] has as its target HLA-A*02:01. The assay is described as above. The following applies: source organism: Zaire ebolavirus.
Another assay concerns the target HLA-A*26:01. The description is as above. The following applies: source organism: Zaire ebolavirus.
The target of another assay is HLA-B*27:03. Described as above. The following applies: source organism: Zaire ebolavirus.
The target in the next assay is HLA-A*69:01. The description is as above. The following applies: source organism: Zaire ebolavirus.
In the next assay the target is HLA-B*15:17. The description is as above. The following applies: source organism: Zaire ebolavirus.
In a further assay the target is HLA-B*46:01. Described as above. The following applies: source organism: Zaire ebolavirus.
A further assay has as its target HLA-A*02:19. Nature of the assay: IEDB peptide-MHC binding, purified MHC/direct/fluorescence; filed as Kd, often an IC50 or EC50 that approximates it; ≥ and ≤ were set here for values at or beyond the usual limits of such assays. The following applies: source organism: Zaire ebolavirus.
The next assay deals with HLA-A*02:12. Described as above. The following applies: source organism: Zaire ebolavirus.
A further assay has as its target HLA-A*02:16. The assay is described as above. The following applies: source organism: Zaire ebolavirus.
For a further assay, the target named is HLA-A*29:02. Described as above. The following applies: source organism: Zaire ebolavirus.
Assay [3] deals with HLA-A*02:03. The assay is described as above. The following applies: source organism: Zaire ebolavirus.
The target of the next assay is HLA-A*02:11. Described as above. The following applies: source organism: Zaire ebolavirus.
The target of assay [4] is HLA-A*03:01. Described as above. The following applies: source organism: Zaire ebolavirus.
Another assay concerns the target HLA-A*24:03. The description is as above.
In the next assay the target is HLA-A*68:02. The description is as above. The following applies: source organism: Zaire ebolavirus.
Assay [5] addresses HLA-B*15:01. Nature of the assay: IEDB peptide-MHC binding, purified MHC/competitive/fluorescence; filed as Kd, often an IC50 or EC50 that approximates it; ≥ and ≤ were set here for values at or beyond the usual limits of such assays. The following applies: source organism: Zaire ebolavirus.
For the next assay, the target named is HLA-B*18:01. The description is as above. The following applies: source organism: Zaire ebolavirus.
In assay [6] the target is HLA-A*02:01. The assay can be described thus: IEDB peptide-MHC binding, purified MHC/competitive/fluorescence; ≥ and ≤ were set here for values at or beyond the usual limits of such assays. The following applies: source organism: Vaccinia virus.
Assay [7] addresses HLA-A*03:01. Described as above. The following applies: source organism: Vaccinia virus.
Another assay deals with HLA-A*02:02. Nature of the assay: IEDB peptide-MHC binding, purified MHC/competitive/radioactivity; filed as Kd, often an IC50 or EC50 that approximates it; ≥ and ≤ were set here for values at or beyond the usual limits of such assays. The following applies: source organism: Vaccinia virus WR.
Assay [8] concerns the target HLA-A*02:03. Described as above. The following applies: source organism: Vaccinia virus WR.
The next assay concerns the target HLA-A*02:06. Described as above. The following applies: source organism: Vaccinia virus WR.
Where [9] appears, read: source organism: Vaccinia virus WR.

Regarding LMFKHLLHP, the Kd with HLA-A*30:01 worked out at 0.504 µM; with HLA-B*15:03 (setting [9]) it was 0.0259 µM; in the assay with HLA-B*15:01 [1] it was 0.103 µM; with HLA-B*08:01 it was 0.00104 µM; in the assay with HLA-A*32:01 it was 11.3 µM.

AKSQSDTVF: the Kd with HLA-B*15:03 (setting [9]) came to 0.00016 µM.

With FMYFCEQKL, the Kd in the assay with HLA-B*15:03 (setting [9]) was 0.0357 µM.

For the sequence VMSQEDNHF, the Kd is 0.102 µM in the assay with HLA-B*15:03 (setting [9]) and 0.192 µM in the assay with HLA-B*15:01 [1].

For KIVMTPSPF, the Kd with HLA-B*15:03 (setting [9]) came to 0.211 µM.

On to SQTIELIAF, for which, in the assay with HLA-B*15:03 (setting [9]), the Kd was 0.000206 µM.

As for SQVRVPTVF, the dissociation constant Kd with HLA-B*57:01, in the assay with HLA-B*39:01, with HLA-B*51:01, with HLA-A*02:01 [2], with HLA-A*26:01 and in the assay with HLA-B*27:03 was no less than 20 µM each time. Also, the Kd with HLA-A*69:01, with HLA-B*15:17, in the assay with HLA-B*46:01, with HLA-A*02:19, with HLA-A*02:12 and in the assay with HLA-A*02:16 was no less than 20 µM in each case. The Kd with HLA-A*29:02, in the assay with HLA-A*02:03 [3], with HLA-A*02:11, with HLA-A*03:01 [4], with HLA-A*24:03 (source organism: Sudan ebolavirus - Uganda (2000)) and with HLA-A*68:02 was no less than 20 µM in each case.

As to LKSPKRCSF, the Kd in the assay with HLA-B*15:03 (setting [9]) came to 0.00274 µM.

For the sequence IFLKPDETF, the dissociation constant (Kd) in the assay with HLA-B*57:01, with HLA-B*39:01, with HLA-B*15:01 [5], in the assay with HLA-B*51:01, with HLA-A*02:01 [2] and in the assay with HLA-A*26:01 was no less than 20 µM each time. In addition, the equilibrium dissociation constant (Kd) with HLA-B*27:03, in the assay with HLA-A*69:01, with HLA-B*18:01, with HLA-B*15:17, in the assay with HLA-B*46:01 and with HLA-A*02:19 was no less than 20 µM throughout. The equilibrium dissociation constant (Kd) in the assay with HLA-A*02:12 is no less than 20 µM; in the assay with HLA-A*02:16, no less than 20 µM; with HLA-A*02:03 [3] it was no less than 20 µM; with HLA-A*02:11, no less than 20 µM; in the assay with HLA-A*03:01 [4], no less than 20 µM; with HLA-A*24:03 (source organism: Sudan ebolavirus - Maleo (1979)), 0.0366 µM. The sequence further yielded a Kd with HLA-A*68:02 of no less than 20 µM.

As for LMMTLPSIF, in the assay with HLA-B*15:03 (setting [9]), the Kd was 0.000152 µM.

Regarding YMSSEPIIF, the Kd with HLA-B*15:03 (setting [9]) was determined as 0.000304 µM.

For LTIACRVSL, the Kd with HLA-A*30:01 was determined as 0.475 µM; with HLA-B*15:03 (setting [9]), 0.599 µM; in the assay with HLA-B*15:01 [1] it was 0.0758 µM; with HLA-B*08:01 it was 0.731 µM; in the assay with HLA-A*32:01, 0.0958 µM.

On to RMFGSKPTF, for which the equilibrium dissociation constant (Kd) was 6.25 µM in the assay with HLA-A*30:01; 0.000206 µM in the assay with HLA-B*15:03 (setting [9]); 7.51 µM in the assay with HLA-B*15:01 [1]; 7.87 µM with HLA-B*08:01; 9.8 µM with HLA-A*32:01.

With FSMLGIWFF, the equilibrium dissociation constant (Kd) with HLA-B*15:03 (source organism: Vaccinia virus Copenhagen) came out at 0.0283 µM.

Turning to LLLQKYPPP, the IC50 in the assay with HLA-A*02:01 [6] was 34.1 µM; in the assay with HLA-A*03:01 [7], no less than 416 µM.

Turning to LQISRVNDL, the Kd was determined as 0.0898 µM with HLA-A*02:02, 0.0344 µM with HLA-B*15:03 (setting [9]), 0.0115 µM with HLA-A*02:03 [8] and 0.229 µM with HLA-A*02:06.

In the case of IEVSSDISF, the dissociation constant (Kd) in the assay with HLA-B*15:03 (setting [9]) was 0.00974 µM.

The record behind these values is the Immune Epitope Database (IEDB).
